Test results taken from patent US20230279123A1 (REGENECORE BIOTECH, published 2023).
Where a chain is given by its changes, count along the chain named.

B1: humanized anti-IL-4Rα single domain antibody 4E9-V11 (VHH)
VHH: QVQLVESGGGLVQPGGSLRLSCAASGDFYCMAWFRQAPGKEREAVAIRSGGRSTYYADSVKGRFTISRDNSKNTLYLQMNSLKAEDTAVYYCAVGVDGNCRNYWGQGTLVTVSS
B2: humanized anti-IL-4Rα single domain antibody 4E9-V7 (VHH)
VHH: B1 VHH with Y56L
B3: humanized anti-IL-4Rα single domain antibody 4E9-V6 (VHH)
VHH: QVQLVESGGGLVQPGGSLRLSCAASGDFYCMAWFRQAPGKEREAVATIRSGGRSTYYADSVKGRFTISRDNSKNTLYLQMNSLKAEDTAVYYCAVGVDGNCRNYWGQGTLVTVSS
B4: humanized anti-IL-4Rα single domain antibody 4E9-V9 (VHH)
VHH: B3 VHH with A44R
B5: humanized anti-IL-4Rα single domain antibody 4E9-V3 (VHH)
VHH: B3 VHH with M31L, A32G, K40Q, T47A
B6: humanized anti-IL-4Rα single domain antibody 4E9-V2 (VHH)
VHH: B3 VHH with M31L, A32G, K40Q, T47A, K84R
B7: humanized anti-IL-4Rα single domain antibody 4E9-V5 (VHH)
VHH: B3 VHH with M31L, A32G, K40Q, E41G, R42L, T47A, K84R, G99A
B8: humanized anti-IL-4Rα single domain antibody 4E9-V14 (VHH)
VHH: B3 VHH with K84R
B9: humanized anti-IL-4Rα single domain antibody 4E9-V8 (VHH)
VHH: B3 VHH with A44R, T47K, Y57L
B10: humanized anti-IL-4Rα single domain antibody 4E9-V13 (VHH)
VHH: B3 VHH with L76V
B11: humanized anti-IL-4Rα single domain antibody 4E9-V12 (VHH)
VHH: B3 VHH with Y57L
B12: humanized anti-IL-4Rα single domain antibody 4E9-V10 (VHH)
VHH: B3 VHH with T47A
B13: anti-IL-4Rα single domain antibody 4E9 (4E9-V0) (VHH)
VHH: B3 VHH with L11S, P14A, A44G, R69K, S72A, N74D, A85P, V90M, L110Q
notes: also called non-humanized antibody
B14: reslizumab (antibody, V domains shown)
VH: EVQLVESGGGLVQPGGSLRLSCAVSGLSLTSNSVNWIRQAPGKGLEWVGLIWSNGDTDYNSAIKSRFTISRDTSKSTVYLQMNSLRAEDTAVYYCAREYYGYFDYWGQGTLVTVSS
VL: DIQMTQSPSSLSASVGDRVTITCLASEGISSYLAWYQQKPGKAPKLLIYGANSLQTGVPSRFSGSGSATDYTLTISSLQPEDFATYYCQQSYKFPNTFGQGTKVEVK
B15: non-humanized anti-IL-5 single domain antibody 2B3 (VHH)
VHH: QVQLVESGGGSVQAGGSLRLSCAASGNTFSFSTYCMGWFRQSPGKEREGSLATIYDGSTAYAGSVKGRFTISVDNAKNILYLQMNNLKPEDTAMYYCAAAKYCMFWSDPSYWGQGTQVTVSS
B16: dupilumab (antibody, V domains shown)
VH: EVQLVESGGGLEQPGGSLRLSCAGSGFTFRDYAMTWVRQAPGKGLEWVSSISGSGGNTYYADSVKGRFTISRDNSKNTLYLQMNSLRAEDTAVYYCAKDRLSITIRPRYYGLDVWGQGTTVTVSS
VL: DIVMTQSPLSLPVTPGEPASISCRSSQSLLYSIGYNYLDWYLQKSGQSPQLLIYLGSNRASGVPDRFSGSGSGTDFTLKISRVEAEDVGFYYCMQALQTPYTFGQGTKLEIKR

Biological target: T1, IL-4Rα (on TF-1 cells) (UniProt P24394 26-825, limits assumed)
Assay: cell-based or functional assay

Binder	EC50 of neutralizing IL-4-induced TF-1 proliferation [µM]
B1	1880
B2	0.185
B3	0.000707
B4	0.000752
B5	0.0138
B6	0.0521
B7	0.000746
B8	18600
B9	0.00277
B10	0.00452
B11	0.00203
B12	0.000271

Biological target: T1, IL-4Rα (on TF-1 cells)
Assay: cell-based or functional assay
Remark: another data set of the same source

Binder	EC50 of neutralizing IL-13-induced TF-1 cell proliferation [µM]
B13	0.000229

Biological target: T2, IL-4Rα (receptor protein / antigen) (UniProt P24394 26-232, limits assumed)
T2 construct: also called IL-4 receptor subunit α
Assay: BLI (Octet 96), antibody loaded on sensor, antigen in solution
Experimental: (§1) Assay steps: Octet 96 and Data Acquisition software in the supporting computer were run. The bottom and sides of an acquisition probe were cleaned using a lens tissue with an appropriate amount of 75% ethanol, and the instrument was preheated for 15 min or more. Sensor pre-wetting: before the assay, the Sensor was soaked in the SD buffer for 10 min or more for later use. Then, the machine procedure was set according to: baseline→antibody→baseline→antigen binding→antigen dissociation→sensor regeneration for assay operation.

Binder	Kd [µM]	koff [s⁻¹]	kon [M⁻¹ s⁻¹]
B3	0.00305	0.000506	166000
B10	0.00341	0.000565	166000
B11	0.0093	0.000268	28800
B12		0.000534	173000

Biological target: T1, IL-4Rα (on TF-1 cells)
Assay: cell-based or functional assay
Remark: another data set of the same source

Binder	EC50 of neutralizing IL-4-induced TF-1 cell proliferation [µM]
B13	0.000281

Biological target: T3, IL-5 (human, UniProt P05113 20-134)
T3 sequence (P05113 20-134 limits assumed): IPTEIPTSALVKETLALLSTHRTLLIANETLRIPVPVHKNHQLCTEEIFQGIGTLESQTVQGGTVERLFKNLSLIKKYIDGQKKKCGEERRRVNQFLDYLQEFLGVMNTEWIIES
Assay: cell-based or functional assay

Binder	EC50 of neutralizing IL-5-induced TF-1 cell proliferation [µM]
B14	0.000122
B15	0.000336

Biological target: T2, IL-4Rα (receptor protein / antigen)
Assay: competition ELISA: IL-4Rα coated, biotin-IL-4 at EC80 mixed with antibody dilutions, OD450
Experimental: (§2) (3) A biotin-conjugated ligand protein (IL-4 or IL-5) was diluted to 2 times the EC80 concentration, and the antibody was diluted to 2 times the initial concentration, and 5-fold gradient dilution was carried out. The ligand protein, and the diluted antibody (dupilumab, 4E9V10-2B3V2, 4E9-V0 or 2B3 (SEQ ID NO. 25)) and hIgG respectively, were transferred at 1:1 into a new dispensing plate and mixed well.
(§3) (7) A stopping solution was added, and the values of samples in different wells were immediately read at the wavelength of 450 nm with a microplate reader and recorded as OD450. EC50 was calculated by plotting. 4E9-V0, non-humanized anti-[…] single domain antibody 2B3, dupilumab, reslizumab, and hIgG were used as controls, and the results are shown in Tables 6 and 7 and FIGS. 5 and 6, respectively.

Binder	EC50 [µM]
B13	0.00445
B16	0.00432

Biological target: T1, IL-4Rα (on TF-1 cells)
Assay: cell-based or functional assay
Remark: another data set of the same source

Binder	EC50 of neutralizing IL-13-induced TF-1 proliferation [µM]
B3	0.000759
B9	0.00311
B10	0.0042
B11	0.00211
B12	0.00018

Biological target: T3, IL-5
Assay: competition ELISA: IL-5R coated, biotin-IL-5 at EC80 mixed with antibody dilutions, OD450
Experimental: as §2, §3

Binder	EC50 [µM]
B14	0.00621
B15	0.00691

Biological target: T2, IL-4Rα (receptor protein / antigen)
Assay: BLI (Octet 96), antibody loaded on sensor, antigen 200 nM and 2-fold dilutions in solution
Experimental: as §1

Binder	Kd [µM]
B12	0.00308
